Numbering of substitutions follows the chain as printed. Numbers in names are those of the source. Entries after “also recorded” stand apart in the source; their conditions may differ. Values belong to the molecule of their own block, whether it stands above or below them.
Legend:
ACVR1C-ECD = experiment: MST binding of ACVR1C-ECD-Fc to GREM1-His or ACTIVIN B-His; design: species or system human; conditions: Monolith NT.115, ACVR1C-ECD-Fc 0–27.5 µM vs 50 nM red-fluorescently labeled His-protein, PBS pH 7.4, premium capillaries, n = 3 independent experiments, mean ± s.e.m.
From the text: Expi293F cells were transfected with a pcDNA3.4-ACVR1C-ECD-Fc and pcDNA3.4-ACVR1C-ECD-Fc-double mutant (E85A/T101A) expression vector to produce the target protein, which was subsequently purified using a Protein G column. Briefly, the coding sequence (CDS) of the human ACVR1C extracellular domain (ACVR1C-ECD, NM_145259.3, residues 1–113) fused to an Fc tag was cloned into the pcDNA3.4 vector. Expi293F cells were transfected with this construct, the supernatant was harvested 5 days post transfection.
MST was carried out on a Monolith NT.115 instrument (NanoTemper Technologies GmbH, MO-L011). To evaluate ACVR1C-ECD or ACVR1C peptide or ACVR1C-ECD-double mutant (E85A/T101A) binding to GREM1-His or ACTIVIN B-His, an increasing concentration of purified ACVR1C-ECD-Fc protein (0–27.5 µM) or ACVR1C peptide (0–2.3 µM) or ACVR1C-ECD-double mutant (0–27.5 µM) was incubated with 50 nM red-fluorescently labeled (NanoTemper Technologies GmbH, MO-L011) GREM1-His protein (R&D, 5190-GR) or ACTIVIN B-His protein (SinoBiological, 10814-H08H). Experiments were carried out in a PBS buffer pH 7.4 using premium capillaries (NanoTemper Technologies GmbH, MO-K025).

FGFR1 (Homo sapiens) = FGFR1 (Homo sapiens) (UniProt P11362); conditions: cited from earlier work
FGFR1 (Homo sapiens), sequence (P11362 22-376): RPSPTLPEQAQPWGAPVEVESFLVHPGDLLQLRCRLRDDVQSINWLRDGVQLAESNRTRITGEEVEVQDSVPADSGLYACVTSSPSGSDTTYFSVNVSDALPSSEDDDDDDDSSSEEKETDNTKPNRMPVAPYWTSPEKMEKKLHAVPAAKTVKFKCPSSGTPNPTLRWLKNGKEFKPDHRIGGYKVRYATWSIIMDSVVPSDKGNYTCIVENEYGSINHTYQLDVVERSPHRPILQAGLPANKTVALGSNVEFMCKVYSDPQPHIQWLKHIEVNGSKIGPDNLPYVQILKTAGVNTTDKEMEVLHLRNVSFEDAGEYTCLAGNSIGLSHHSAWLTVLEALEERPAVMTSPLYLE

ACVR1C = experiment: Co-immunoprecipitation of GREM1 and ACVR1C; format: binding, human; conditions: co-IP, truncation or point mutants, HCT116 cells
Experimental: HCT116 cells were transfected with the indicated plasmids and lysed in NP40 lysis buffer (Beyotime, P0013F) supplemented with protease inhibitor cocktail (Thermo, 78446). Lysates were incubated with the indicated Anti-Flag nanobody magarose beads (Ktsm-life, KTSM1338), Anti-HA nanobody magarose beads (Ktsm-life, KTSM1335) or Anti-GFP nanobody magarose beads (Ktsm-life, KTSM1334) overnight at 4 °C. The protein complex was washed four times with the NP40 lysis buffer, eluted with 1×loading buffer (Beyotime, P0015) by boiling for 5 min, followed by mass spectrometry and immunoblotting with the indicated antibodies.
Protein was extracted from the cells with RIPA buffer (Beyotime, P0018) or NP40 lysis buffer (Beyotime, P0013F) and separated by SDS-PAGE, and transferred to polyvinylidene difluoride membranes. Primary antibodies against GREM1 (1:1,000, SinoBiological, 50016-R117), ACVR1C (1:1,000, Thermo, PA587475), Flag-tag (1:1,000, CST, 14793), HA-tag (1:1,000, CST, 3724), E-Cadherin (1:1,000, CST, 3195), β-Catenin (1:1,000, CST, 8480), ZEB1 (1:1,000, CST, 3396), Snail (1:1,000, CST, 3879), SMAD2/3 (1:1,000, CST, 8685), p-SMAD2/3 (1:1,000, CST, 8828), SMAD1 (1:1,000, CST, 6944), p-SMAD1/5/9 (1:1,000, CST, 13820), TGFβ (1:1,000, CST, 3709), TGFβR1 (0.3 µg/mL, R&D, AF3025), β-actin (1:5,000, Beyotime, AF0003) and GAPDH (1:5,000, Beyotime, AF0006) were used in this study. Peroxidase-conjugated secondary antibody (1:10,000, Cell Signaling Technology, 7074, 7076) was used and signal was visualized using an enhanced chemiluminescence assay (ECL, Thermo), according to the manufacturer’s protocol. Band intensity was quantified using Fiji (ImageJ) by grayscale analysis.

[1] = system: CRC cells (SW480, HCT116, and MC38); experiment: GREM1 withdrawal assay, RT–qPCR and immunoblot; format: cell-based, human (SW480, mouse (MC38); conditions: rhGREM1 or rmGrem1 200 ng/mL 24 h, then GREM1-free medium 2 and 4 days
Experimental: To determine whether tumor cells that have acquired signaling autonomy can sustain GREM1 expression in the absence of external stimulation, we performed a GREM1 withdrawal assay. CRC cells (SW480, HCT116, and MC38) were first pulsed with rhGREM1 or recombinant mouse GREM1 (rmGrem1) for 24 h to initiate the signaling response. The medium containing rhGREM1 or rmGrem1 was then thoroughly removed, replaced with fresh GREM1-free medium, and the cells were cultured for an additional 4 days. […] This persistent, self-sustaining expression supports our conclusion that the initial rhGREM1 or rmGrem1 stimulation triggers a positive feedback loop of GREM1 transcription within CRC cells.
Protein was extracted from the cells with RIPA buffer (Beyotime, P0018) or NP40 lysis buffer (Beyotime, P0013F) and separated by SDS-PAGE, and transferred to polyvinylidene difluoride membranes. […] Band intensity was quantified using Fiji (ImageJ) by grayscale analysis.
Total RNA was extracted using Trizol reagent (Invitrogen, 15596026). […] The SYBR Green Premix Pro Taq HS qPCR Kit (Accurate Biology, AG11701) was then used to quantify mRNA expression according to the manufacturer’s instructions. All results were calculated using the 2^−ΔΔCt method. […]

[2] = molecular target: T1, His-tagged full-length GREM1 (recombinant human GREM1-His) (human, UniProt O60565 25-184, red fluorescent label (NanoTemper, MO-L011) in the MST assays); experiment: MST; Monolith NT.115; 50 nM red-fluorescently labelled GREM1-His or ACTIVIN B-His, unlabelled partner titrated (ACVR1C-ECD-Fc or double mutant 0–27.5 µM, ACVR1C peptide 0–2.3 µM); PBS pH 7.4; n = 3; conditions: both partners purified
T1 construct: also called recombinant GREM1; rhGREM1; source: bought: R&D, 5190-GR
T1 sequence (looked up): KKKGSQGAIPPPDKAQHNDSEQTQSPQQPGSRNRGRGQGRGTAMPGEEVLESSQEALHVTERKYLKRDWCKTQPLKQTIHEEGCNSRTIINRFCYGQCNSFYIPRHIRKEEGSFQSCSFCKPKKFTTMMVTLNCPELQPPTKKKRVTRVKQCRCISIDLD

ACTIVIN B-His = ACTIVIN B-His (UniProt P09529); experiment: as above

- Kd (ACVR1C-ECD): 0.854 ± 0.127 µM
Molecule: ACTIVIN B: a known ligand of ACVR1C; ACTIVIN B-His protein (SinoBiological, 10814-H08H)

Molecule: GREM1 (from UniProt O60565)
- Kd (FGFR1 (Homo sapiens)): 0.0106 µM

B1: Q101A/T102A/T112A/N115A quadruple mutation in GREM1: GREM1 point mutant (protein)
chain: T1 sequence (looked up) with Q77A, T78A, T88A, N91A
modifications: left off: HA, end not stated, state not stated | mCherry, end not stated, state not stated
notes: GREM1 point mutant
- effect of deletion or mutation on GREM1–ACVR1C interaction (ACVR1C): significantly abrogated the GREM1–ACVR1C interaction
- effect of deletion or mutation on GREM1–ACVR1C interaction (ACVR1C; listed as AA101/102/112/115 mutant (M3) of GREM1): impaired

B2: rmGrem1: recombinant mouse GREM1 (protein, UniProt O70326 25-184, looked up)
Gremlin-1: T1 sequence (looked up) with Q27P, N33T
- endogenous GREM1 expression after withdrawal [1]: not only maintained but in some cases further increased even after the withdrawal of exogenous GREM1; also recorded: maintained elevated endogenous GREM1 expression even after withdrawal of exogenous GREM1

- Kd [2]: 0.0923 µM
Molecule: TECCFTDFCNNITLHLPTA (peptide, UniProt Q8NER5 84-102, looked up, ACVR1C, human, residues 84–102) [ACVR1C peptide (amino acid residues 84–102 of ACVR1C)]

B3: E85A: ACVR1C single mutant (protein, UniProt Q8NER5 21-493, looked up, variant E85A)
Activin receptor type-1C: ELSPGLKCVCLLCDSSNFTCQTEGACWASVMLTNGKEQVIKSCVSLPELNAQVFCHSSNNVTKTACCFTDFCNNITLHLPTASPNAPKLGPMELAIIITVPVCLLSIAAMLTVWACQGRQCSYRKKKRPNVEEPLSECNLVNAGKTLKDLIYDVTASGSGSGLPLLVQRTIARTIVLQEIVGKGRFGEVWHGRWCGEDVAVKIFSSRDERSWFREAEIYQTVMLRHENILGFIAADNKDNGTWTQLWLVSEYHEQGSLYDYLNRNIVTVAGMIKLALSIASGLAHLHMEIVGTQGKPAIAHRDIKSKNILVKKCETCAIADLGLAVKHDSILNTIDIPQNPKVGTKRYMAPEMLDDTMNVNIFESFKRADIYSVGLVYWEIARRCSVGGIVEEYQLPYYDMVPSDPSIEEMRKVVCDQKFRPSIPNQWQSCEALRVMGRIMRECWYANGAARLTALRIKKTISQLCVKEDCKA
- effect of deletion or mutation on GREM1–ACVR1C interaction (ACVR1C): significantly abrogated the GREM1–ACVR1C interaction
- effect of deletion or mutation on GREM1–ACVR1C interaction (ACVR1C; listed as AA85 mutant (M2)): impaired

B4: T101A: ACVR1C single mutant (protein)
chain: B3 Activin receptor type-1C with A65E, T81A
modifications: left off: Flag, end not stated, state not stated | GFP, end not stated, state not stated
notes: ACVR1C single mutant
- effect of deletion or mutation on GREM1–ACVR1C interaction (ACVR1C): significantly abrogated the GREM1–ACVR1C interaction
- effect of deletion or mutation on GREM1–ACVR1C interaction (ACVR1C; listed as AA101 mutant (M3) of ACVR1C): impaired

- Kd (ACTIVIN B-His): 0.854 µM
- Kd [2]: 0.0677 µM
B5: Fc-tagged ACVR1C extracellular domain (ACVR1C-ECD, AA1–113) (Fc fusion, human, UniProt Q8NER5-1 21-113, looked up)
chain: ELSPGLKCVCLLCDSSNFTCQTEGACWASVMLTNGKEQVIKSCVSLPELNAQVFCHSSNNVTKTECCFTDFCNNITLHLPTASPNAPKLGPME
notes: signal peptide in the construct; Vector pcDNA3.4; also called ACVR1C-ECD-Fc; recombinant human ACVR1C-ECD and Fc chimera protein; source: Expi293F, transfected, purified from supernatant (Protein G column, ion exchange)

Reference: publication PMC13371181, “A paracrine-to-autocrine shunt of GREM1 fuels colorectal cancer metastasis via ACVR1C” (Molecular Cancer, 2026)
